Each block holds one binder with its values, some of them ahead of it.
Legend:
[1] = biological target: insulin-like growth factor I (IGF-I) (UniProt P05019 49-118); assay: cell-based or functional assay
[2] = biological target: T1, insulin-like growth factor II (IGF-II), amino acids 1-67 (human, UniProt P01344 25-91); assay: cell-based or functional assay
[3] = biological target: T2, IGF-IIE (amino acids 1-104 of pro-IGF-II) (human, UniProt P01344 25-128); assay: cell-based or functional assay
[4] = biological target: T1, insulin-like growth factor II (IGF-II), …; assay: SPR (Flexchip), Fab, 1st of duplicate
[5] = biological target: T2, IGF-IIE (amino acids 1-104 of …); assay: SPR (Flexchip), Fab, 1st of duplicate
[6] = biological target: T2, IGF-IIE (amino acids 1-104 of …); assay: competition SPR (BIACORE T100), affinity in solution, free ligand read on huIR-A ECD; measurement 2
Experimental: (§1) Competition SPR (BIACORE®) was performed under conditions of partially mass-transport limited conditions according to previously described methodology (Nieba et al., 1996). Approximately 16,700 relative response units (RU) of huIR-A (-exon11) ectodomain was coupled by standard amine chemistry to a BIACORE® CM5 chip sensor. Uncoated flow-cell surface was used as a reference. […] Regeneration of the surface was achieved by injection of 30 ul NaCltrate/NaCl pH 4.5. […] These Req estimates were subsequently plotted against total concentrations of Fab used and the resulting inhibition curve was utilised to calculate dissociation constant (KD).

[7] = biological target: T2, IGF-IIE (amino acids 1-104 of …); assay: competition SPR (BIACORE T100), affinity in solution, free ligand read on huIR-A ECD; measurement 1
Experimental: as §1

[8] = biological target: T1, insulin-like growth factor II (IGF-II), …; assay: SPR, IgG on Protein G', then ligand, then BP; competitor BP2; 0 = no significant competition, 5 = competes strongly
Experimental: (§2) BIACORE® T100 and a CM5 chip coated with Protein G were utilised to set up following assay. Approximately 1000 RU of Protein G′ was immobilized on a CM5 chip using standard amine chemistry immobilization method.
(§3) 4) Protein G′ surface was finally regenerated by injection of 10 mM Glycine pH 1.5-injected at 30 ul/min for 60 sec.

[9] = biological target: T2, IGF-IIE (amino acids 1-104 of …); assay: as above
Experimental: as §2, §3

[10] = biological target: T1, insulin-like growth factor II (IGF-II), …; assay: SPR, IgG on Protein G', then ligand, then BP; competitor BP4; 0 = no significant competition, 5 = competes strongly
Experimental: as §2, §3

[11] = biological target: T2, IGF-IIE (amino acids 1-104 of …); assay: as above
Experimental: as §2, §3

[12] = biological target: T1, insulin-like growth factor II (IGF-II), …; assay: SPR (Flexchip), Fab, 2nd of duplicate
[13] = biological target: T2, IGF-IIE (amino acids 1-104 of …); assay: SPR (Flexchip), Fab, 2nd of duplicate
[14] = biological target: T1, insulin-like growth factor II (IGF-II), …; assay: competition SPR (BIACORE T100), affinity in solution, free ligand read on huIR-A ECD; measurement 1
Experimental: as §1

[15] = biological target: T1, insulin-like growth factor II (IGF-II), …; assay: competition SPR (BIACORE T100), affinity in solution, free ligand read on huIR-A ECD; measurement 2
Experimental: as §1

T2 sequence (P01344 25-128): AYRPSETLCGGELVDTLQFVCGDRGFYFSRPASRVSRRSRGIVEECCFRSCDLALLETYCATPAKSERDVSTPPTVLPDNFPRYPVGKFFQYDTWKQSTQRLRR
T1 sequence (P01344 25-91): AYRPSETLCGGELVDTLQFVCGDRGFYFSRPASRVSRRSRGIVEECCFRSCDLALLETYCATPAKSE
insulin-like growth factor I (IGF-I), sequence (P05019 49-118 limits assumed): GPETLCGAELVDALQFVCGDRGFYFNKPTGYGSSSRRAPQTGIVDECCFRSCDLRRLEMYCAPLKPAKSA

B2: M0073-C11 Fab (Fab, V domains shown)
VH: EVQLLESGGGLVQPGGSLRLSCAASGFTFSPYDMWWVRQAPGKGLEWVSSISSSGGITAYADSVKGRFTISRDNSKNTLYLQMNSLRAEDTAVYYCARAGYSSSWGYYYYGMDVWGQGTTVTVSS
VL: QSALTQPPSVSVSPGQTASITCSGDRLGDKYASWYQQKPGQSPVLVIYQDTKRPSGIPERFSGSNSGSTATLTISGTQAMDEADYYCQAWDSSTVVFGGGTKLTVL
Kd [6]: 19.1 nM
Kd [7]: 20.2 nM

B3: M0070-H08 IgG (parental) (antibody, V domains shown)
VH: EVQLLESGGGLVQPGGSLRLSCAASGFTFSRYWMIWVRQAPGKGLEWVSSIRSSGETKYADSVKGRFTISRDNSKNTLYLQMNSLRAEDTAVYYCARGPLSDYYDSSGYYFDAFDIWGQGTMVTVSS
VL: DIQMTQSPSSLSASAGDRVTITCRASQSISSYLNWYQQKPGKAPNLLIYTTSNLQGGVPSRFSGSGSGTDFTLTISSLQPEDFATYYCQQGYSFPLTFGGGTKVEIK
competition score [8]: 3 score 0-5
competition score [9]: 2 score 0-5
competition score [10]: 2 score 0-5
competition score [11]: 1 score 0-5

B5: M0080-G03 Fab (Fab, V domains shown)
VH: EVQLLESGGGLVQPGGSLRLSCAASGFTFSFYQMMWVRQAPGKGLEWVSSISPSGGRTYYADSVKGRFTISRDNSKNTLYLQMNSLRAEDTAVYYCAKDIGLGYCSSTSCYTGTPLDYWGQGTLVTVSS
VL: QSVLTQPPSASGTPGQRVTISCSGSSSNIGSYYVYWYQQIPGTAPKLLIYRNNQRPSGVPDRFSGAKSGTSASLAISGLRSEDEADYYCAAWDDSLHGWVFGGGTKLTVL
Kd [6]: 21.2 nM
Kd [7]: 29.3 nM

B6: M0033-E05 Fab (Fab, V domains shown)
VH: EVQLLESGGGLVQPGGSLRLSCAASGFTFSHYSMWWVRQAPGKGLEWVSYIGPSGGHTRYADSVKGRFTISRDNSKNTLYLQMNSLRAEDTAVYYCARGLYYYDSSSVTHAFDLWGQGTMVTVSS
VL: DIQMTQSPSSLSASVGDRVTISCRASQGITNYLVWFQQKPGKAPRLLIYDASTLESGVPSRFSGSGSGTDFTLTISSLQPEDFATYYCQQADGFPLTFGEGTKVEMKR
notes: soluble Fab (sFab); also called R0032-A05
Kd [12]: 5.5 nM
Kd [5]: 0.87 nM

B7: M0072-G06 Fab (Fab, V domains shown)
VH: EVQLLESGGGLVQPGGSLRLSCAASGFTFSEYVMWWVRQAPGKGLEWVSVISPSGGYTVYADSVKGRFTISRDNSKNTLYLQMNSLRAEDTAVYYCARDRGGATTLDYWGQGTLVTVSS
VL: DIQMTQSPSTLSASVGDRVTITCRASQTISSWLAWYQQKPGKAPKLMIYKAASLGSEVPSRFSGSGSGTEFTLTISSLQPEDFSTYYCQQYKTYPVTFGQGTRLEIKR
notes: soluble Fab (sFab); also called R0032-C05
Kd [12]: 1.4 nM
Kd [13]: 0.89 nM
IGF-I stimulated Ba/F3 cell proliferation, sFab at 50 µg/ml [1]: ~30 % inhibition
IC50, IGF-II stimulated Ba/F3 cell proliferation (MTS) [2]: 8.7 µg/mL
IC50, IGF-IIE stimulated Ba/F3 cell proliferation (MTS) [3]: 2.5 µg/mL
Kd [4]: 0.58 nM
Kd [5]: 0.56 nM
Kd [14]: 3.99 nM
Kd [7]: 6.36 nM

B9: M0072-C06 Fab (Fab, V domains shown)
VH: EVQLLESGGGLVQPGGSLRLSCAASGFTFSAYIMTWVRQAPGKGLEWVSSISPSGGYTVYADSVKGRFTISRDNSKNTLYLQMNSLRAEDTAVYYCARDSGFGDPFDYWGQGTMVTVSS
VL: DIQMTQSPSSLSASVGDRVTITCRASQSIRNYLNWYQQKPGKAPKLLIYAASKLEDGVPSRFSGSGTGTDFTLTIRSLQPEDFASYFCQQSYSSPGITFGPGTKVEIKR
notes: soluble Fab (sFab); also called R0032-A09
Kd [12]: 0.7 nM
IGF-I stimulated Ba/F3 cell proliferation, sFab at 50 µg/ml [1]: ~30 % inhibition
IC50, IGF-II stimulated Ba/F3 cell proliferation (MTS) [2]: 5.12 µg/mL
IC50, IGF-IIE stimulated Ba/F3 cell proliferation (MTS) [3]: 2.3 µg/mL
Kd [4]: 5.2 nM
Kd [5]: 0.52 nM
Kd [15]: 2.52 nM
Kd [6]: 1.05 nM
Kd [14]: 1.64 nM
Kd [7]: 3.95 nM

B10: M0072-C06 IgG (parental) (antibody, V domains shown)
VH: B9 VH
VL: DIQMTQSPSSLSASVGDRVTITCRASQSIRNYLNWYQQKPGKAPKLLIYAASKLEDGVPSRFSGSGTGTDFTLTIRSLQPEDFASYFCQQSYSSPGITFGPGTKVEIK
competition score [8]: 3 score 0-5
competition score [9]: 2 score 0-5
competition score [10]: 2 score 0-5
competition score [11]: 1 score 0-5

B11: M0072-E03 Fab (Fab, V domains shown)
VH: EVQLLESGGGLVQPGGSLRLSCAASGFTFSEYEMSWVRQAPGKGLEWVSSIYSSGGWTKYTDSVKGRFTISRDNSKNTLYLQMNSLRAEDTAVYYCAKGVHYDSSGLPIDWYFDLWGRGTLVTVSS
VL: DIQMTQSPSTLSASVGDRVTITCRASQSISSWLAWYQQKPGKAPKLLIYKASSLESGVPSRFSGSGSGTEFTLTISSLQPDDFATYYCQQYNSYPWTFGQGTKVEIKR
notes: soluble Fab (sFab); also called R0032-C03
Kd [12]: 0.3 nM
Kd [13]: 0.22 nM
IGF-I stimulated Ba/F3 cell proliferation, sFab at 50 µg/ml [1]: ~30 % inhibition
Kd [4]: 0.75 nM
Kd [5]: 0.096 nM
Kd [14]: 2.62 nM
Kd [7]: 5.32 nM

Continued, values first:

IGF-I stimulated Ba/F3 cell proliferation, sFab at 50 µg/ml [1]: ~30 % inhibition
IC50, IGF-II stimulated Ba/F3 cell proliferation (MTS) [2]: 2.27 µg/mL
IC50, IGF-IIE stimulated Ba/F3 cell proliferation (MTS) [3]: 5.74 µg/mL
Kd [4]: 0.93 nM
Kd [5]: 0.66 nM
B1: M0068-E03 Fab (Fab, V domains shown)
VH: EVQLLESGGGLVQPGGSLRLSCAASGFTFSEYVMAWVRQAPGKGLEWVSSIVSSGGYTKYADSVKGRFTISRDNSKNTLYLQMNSLRAEDTAVYYCAKDMTYSGDAFDVWGQGTMVTVSS
VL: DIQMTQSPSSLSASVGDRVTITCRASQSINTYLNWYQQKPGKAPKVLIHAASTLESGVPSRFSGSGSATEFTLTISSLQPEDFATFYCQQSYSVPFTFGPGTRLSSKR
notes: soluble Fab (sFab); heavy constant part carries His6 and myc tags; also called R0032-C01

Kd [12]: 1.1 nM
Kd [13]: 0.39 nM
Kd [4]: 3.3 nM
Kd [5]: 0.36 nM
Kd [14]: 3.24 nM
Kd [7]: 4.83 nM
B4: M0070-H08 Fab (Fab, V domains shown)
VH: B3 VH
VL: DIQMTQSPSSLSASAGDRVTITCRASQSISSYLNWYQQKPGKAPNLLIYTTSNLQGGVPSRFSGSGSGTDFTLTISSLQPEDFATYYCQQGYSFPLTFGGGTKVEIKR
notes: soluble Fab (sFab); also called R0032-A07

competition score [8]: 2 score 0-5
competition score [9]: 2 score 0-5
competition score [10]: 1 score 0-5
competition score [11]: 1 score 0-5
B8: M0072-G06 IgG (parental) (antibody, V domains shown)
VH: B7 VH
VL: DIQMTQSPSTLSASVGDRVTITCRASQTISSWLAWYQQKPGKAPKLMIYKAASLGSEVPSRFSGSGSGTEFTLTISSLQPEDFSTYYCQQYKTYPVTFGQGTRLEIK

competition score [8]: 4 score 0-5
competition score [9]: 3 score 0-5
competition score [10]: 4 score 0-5
competition score [11]: 3 score 0-5
B12: M0072-E03 IgG (parental) (antibody, V domains shown)
VH: B11 VH
VL: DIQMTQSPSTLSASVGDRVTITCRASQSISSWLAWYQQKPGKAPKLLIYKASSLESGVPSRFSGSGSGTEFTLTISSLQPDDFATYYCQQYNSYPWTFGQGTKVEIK

— patent US20110165145A1 (published 2011)
